Changes are numbered by the printed parent chain.
B1: FLAG-tagged human CXCR4, wild type (receptor, UniProt P61073 1-352, looked up)
chain: MEGISIYTSDNYTEEMGSGDYDSMKEPCFREENANFNKIFLPTIYSIIFLTGIVGNGLVILVMGYQKKLRSMTDKYRLHLSVADLLFVITLPFWAVDAVANWYFGNFLCKAVHVIYTVNLYSSVLILAFISLDRYLAIVHATNSQRPRKLLAEKVVYVGVWIPALLLTIPDFIFANVSEADDRYICDRFYPNDLWVVVFQFQHIMVGLILPGIVILSCYCIIISKLSHSKGHQKRKALKTTVILILAFFACWLPYYIGISIDSFILLEIIKQGCEFENTVHKWISITEALAFFHCCLNPILYAFLGAKFKTSAQHALTSVSRGSSLKILSKGKRGGHSSVSTESESSSFHSS
B2: FLAG-tagged human CXCR4 Ile4Glu/Ile6Glu (receptor, UniProt P61073 1-352, looked up)
chain: B1 chain with I4E, I6E

Target: wild-type CXCL12 (stromal cell-derived factor-1) (UniProt P48061-2 22-89)
Assay: radioligand binding

Binder | Kd [nM]
B1 | 1.45
B2 | 45.7

— publication PMC5648539 (Science signaling, 2017)
